Results reported in patent US20140087995A1 (published 2014).
Numbered stars: 1 amine (or outer) side, 2 acyl side, 3 side chain; on linkers, the order of the positions; unused ones are H or OH. Bridge positions count the residues as written; N and C are the ends. Side chains are listed from the residue outwards. Ends that are not written are not given here. * marks the point of attachment. C20 diacid = O=C(O)CCCCCCCCCCCCCCCCCCC(=O)*; γGlu = O=C(O)[C@H](CCC(=O)[*:2])N[*:1]; AEEA = NCCOCCOCC(=O)O

T1: human calcitonin receptor (human, UniProt P30988 25-474)
T1 construct: whole, on cells; Assay used cell membranes, not intact cells; also called hCTR; hCT
T1 sequence (looked up): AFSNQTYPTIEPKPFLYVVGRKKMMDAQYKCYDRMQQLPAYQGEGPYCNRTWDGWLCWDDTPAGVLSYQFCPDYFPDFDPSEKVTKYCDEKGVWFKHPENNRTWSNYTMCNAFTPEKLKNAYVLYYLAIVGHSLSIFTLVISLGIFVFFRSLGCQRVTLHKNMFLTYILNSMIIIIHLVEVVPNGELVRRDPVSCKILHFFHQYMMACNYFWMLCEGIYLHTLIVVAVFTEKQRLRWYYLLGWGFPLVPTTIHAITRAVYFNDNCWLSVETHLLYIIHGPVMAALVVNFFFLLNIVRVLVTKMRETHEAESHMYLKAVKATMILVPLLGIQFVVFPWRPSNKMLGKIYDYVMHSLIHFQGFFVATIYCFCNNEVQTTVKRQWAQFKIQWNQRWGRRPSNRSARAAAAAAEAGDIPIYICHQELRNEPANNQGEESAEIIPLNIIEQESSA

T2: human amylin receptor (amylin 3(a) receptor: human calcitonin receptor with RAMP-3) (human, UniProt P30988 25-474; O60896 24-148)
T2 construct: whole, on cells; Assay used cell membranes of the Amylin 3(a)/CRE-luc BHK cells, not intact cells; also called hAmylin-R; hAmylinR
T2 sequence (looked up) 1: T1 sequence (looked up)
T2 sequence (looked up) 2: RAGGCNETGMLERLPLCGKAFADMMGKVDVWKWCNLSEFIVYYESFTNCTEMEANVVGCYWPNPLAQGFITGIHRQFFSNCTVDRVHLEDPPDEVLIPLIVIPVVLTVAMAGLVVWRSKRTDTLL

T3: human calcitonin receptor (human, UniProt P30988 25-474)
T3 construct: whole, on cells; Assay used cell membranes of the transfected BHK cells; also called hCTR; hCT
T3 sequence (looked up): T1 sequence (looked up)

B1: N^-1-[(4S)-4-carboxy-4-(19-carboxynonadecanoylamino)butanoyl]-Gly[Arg1,Ala14,Arg17,Pro21,Pro27,His34]-h-amylin (peptide)
peptide: {C20 diacid-γGlu}-GRCNTATCATQRLAAFLRHSSPNFGAIPSSTNVGHNTY-NH2
modifications: disulfide 3-8
SMILES: CC[C@H](C)[C@H](NC(=O)[C@H](C)NC(=O)CNC(=O)[C@H](Cc1ccccc1)NC(=O)[C@H](CC(N)=O)NC(=O)[C@@H]1CCCN1C(=O)[C@H](CO)NC(=O)[C@H](CO)NC(=O)[C@H](Cc1c[nH]cn1)NC(=O)[C@H](CCCNC(=N)N)NC(=O)[C@H](CC(C)C)NC(=O)[C@H](Cc1ccccc1)NC(=O)[C@H](C)NC(=O)[C@H](C)NC(=O)[C@H](CC(C)C)NC(=O)[C@H](CCCNC(=N)N)NC(=O)[C@H](CCC(N)=O)NC(=O)[C@@H](NC(=O)[C@H](C)NC(=O)[C@@H]1CSSC[C@H](NC(=O)[C@H](CCCNC(=N)N)NC(=O)CNC(=O)CC[C@H](NC(=O)CCCCCCCCCCCCCCCCCCC(=O)O)C(=O)O)C(=O)N[C@@H](CC(N)=O)C(=O)N[C@@H]([C@@H](C)O)C(=O)N[C@@H](C)C(=O)N[C@@H]([C@@H](C)O)C(=O)N1)[C@@H](C)O)C(=O)N1CCC[C@H]1C(=O)N[C@@H](CO)C(=O)N[C@@H](CO)C(=O)N[C@H](C(=O)N[C@@H](CC(N)=O)C(=O)N[C@H](C(=O)NCC(=O)N[C@@H](Cc1c[nH]cn1)C(=O)N[C@@H](CC(N)=O)C(=O)N[C@H](C(=O)N[C@@H](Cc1ccc(O)cc1)C(N)=O)[C@@H](C)O)C(C)C)[C@@H](C)O
B2: N^-1-[(4S)-4-carboxy-4-(19-carboxynonadecanoylamino)butanoyl]-Gly[Arg1,Ala14,Arg17,Pro21,Pro27,Pro34]-h-amylin (peptide)
peptide: {C20 diacid-γGlu}-GRCNTATCATQRLAAFLRHSSPNFGAIPSSTNVGPNTY-NH2
modifications: disulfide 3-8
B3: N^-1-[(4S)-4-carboxy-4-(19-carboxynonadecanoylamino)butanoyl]-Gly[Arg1,His14,Arg17,Pro21,Pro27,Pro34]-h-amylin (peptide)
peptide: {C20 diacid-γGlu}-GRCNTATCATQRLAHFLRHSSPNFGAIPSSTNVGPNTY-NH2
modifications: disulfide 3-8
SMILES: CC[C@H](C)[C@H](NC(=O)[C@H](C)NC(=O)CNC(=O)[C@H](Cc1ccccc1)NC(=O)[C@H](CC(N)=O)NC(=O)[C@@H]1CCCN1C(=O)[C@H](CO)NC(=O)[C@H](CO)NC(=O)[C@H](Cc1c[nH]cn1)NC(=O)[C@H](CCCNC(=N)N)NC(=O)[C@H](CC(C)C)NC(=O)[C@H](Cc1ccccc1)NC(=O)[C@H](Cc1c[nH]cn1)NC(=O)[C@H](C)NC(=O)[C@H](CC(C)C)NC(=O)[C@H](CCCNC(=N)N)NC(=O)[C@H](CCC(N)=O)NC(=O)[C@@H](NC(=O)[C@H](C)NC(=O)[C@@H]1CSSC[C@H](NC(=O)[C@H](CCCNC(=N)N)NC(=O)CNC(=O)CC[C@H](NC(=O)CCCCCCCCCCCCCCCCCCC(=O)O)C(=O)O)C(=O)N[C@@H](CC(N)=O)C(=O)N[C@@H]([C@@H](C)O)C(=O)N[C@@H](C)C(=O)N[C@@H]([C@@H](C)O)C(=O)N1)[C@@H](C)O)C(=O)N1CCC[C@H]1C(=O)N[C@@H](CO)C(=O)N[C@@H](CO)C(=O)N[C@H](C(=O)N[C@@H](CC(N)=O)C(=O)N[C@H](C(=O)NCC(=O)N1CCC[C@H]1C(=O)N[C@@H](CC(N)=O)C(=O)N[C@H](C(=O)N[C@@H](Cc1ccc(O)cc1)C(N)=O)[C@@H](C)O)C(C)C)[C@@H](C)O
B4: N{-1}-[(4S)-4-carboxy-4-(19-carboxynonadecanoylamino)butanoyl]-Gly[Arg1,His14,Arg17,Pro21,Pro27]-h-amylin (peptide)
peptide: {C20 diacid-γGlu}-GRCNTATCATQRLAHFLRHSSPNFGAIPSSTNVGSNTY-NH2
modifications: disulfide 3-8
SMILES: CC[C@H](C)[C@H](NC(=O)[C@H](C)NC(=O)CNC(=O)[C@H](Cc1ccccc1)NC(=O)[C@H](CC(N)=O)NC(=O)[C@@H]1CCCN1C(=O)[C@H](CO)NC(=O)[C@H](CO)NC(=O)[C@H](Cc1c[nH]cn1)NC(=O)[C@H](CCCNC(=N)N)NC(=O)[C@H](CC(C)C)NC(=O)[C@H](Cc1ccccc1)NC(=O)[C@H](Cc1c[nH]cn1)NC(=O)[C@H](C)NC(=O)[C@H](CC(C)C)NC(=O)[C@H](CCCNC(=N)N)NC(=O)[C@H](CCC(N)=O)NC(=O)[C@@H](NC(=O)[C@H](C)NC(=O)[C@@H]1CSSC[C@H](NC(=O)[C@H](CCCNC(=N)N)NC(=O)CNC(=O)CC[C@H](NC(=O)CCCCCCCCCCCCCCCCCCC(=O)O)C(=O)O)C(=O)N[C@@H](CC(N)=O)C(=O)N[C@@H]([C@@H](C)O)C(=O)N[C@@H](C)C(=O)N[C@@H]([C@@H](C)O)C(=O)N1)[C@@H](C)O)C(=O)N1CCC[C@H]1C(=O)N[C@@H](CO)C(=O)N[C@@H](CO)C(=O)N[C@H](C(=O)N[C@@H](CC(N)=O)C(=O)N[C@H](C(=O)NCC(=O)N[C@@H](CO)C(=O)N[C@@H](CC(N)=O)C(=O)N[C@H](C(=O)N[C@@H](Cc1ccc(O)cc1)C(N)=O)[C@@H](C)O)C(C)C)[C@@H](C)O
notes: also called compound 99
B5: N^ε1-[2-[2-[2-[[(4S)-4-carboxy-4-(19-carboxynonadecanoylamino)butanoyl]amino]ethoxy]ethoxy]acetyl]-[Arg17,Pro21,Pro27,Pro28,Pro31]-h-amylin (peptide)
peptide: K([AEEA-γGlu-C20 diacid])CNTATCATQRLANFLRHSSPNFGAIPPSTPVGSNTY-NH2
modifications: disulfide 2-7
notes: Synthetic analogue; also called compound 53
B6: N^ε1-[2-[2-[2-[[(4S)-4-carboxy-4-(19-carboxynonadecanoylamino)butanoyl]amino]ethoxy]ethoxy]acetyl]-[Arg17,Pro21,Pro27,Pro28,Pro34]-h-amylin (peptide)
peptide: K([AEEA-γGlu-C20 diacid])CNTATCATQRLANFLRHSSPNFGAIPPSTNVGPNTY-NH2
modifications: disulfide 2-7; N-terminus assumed
SMILES: CC[C@H](C)[C@H](NC(=O)[C@H](C)NC(=O)CNC(=O)[C@H](Cc1ccccc1)NC(=O)[C@H](CC(N)=O)NC(=O)[C@@H]1CCCN1C(=O)[C@H](CO)NC(=O)[C@H](CO)NC(=O)[C@H](Cc1c[nH]cn1)NC(=O)[C@H](CCCNC(=N)N)NC(=O)[C@H](CC(C)C)NC(=O)[C@H](Cc1ccccc1)NC(=O)[C@H](CC(N)=O)NC(=O)[C@H](C)NC(=O)[C@H](CC(C)C)NC(=O)[C@H](CCCNC(=N)N)NC(=O)[C@H](CCC(N)=O)NC(=O)[C@@H](NC(=O)[C@H](C)NC(=O)[C@@H]1CSSC[C@H](NC(=O)[C@@H](N)CCCCNC(=O)COCCOCCNC(=O)CC[C@H](NC(=O)CCCCCCCCCCCCCCCCCCC(=O)O)C(=O)O)C(=O)N[C@@H](CC(N)=O)C(=O)N[C@@H]([C@@H](C)O)C(=O)N[C@@H](C)C(=O)N[C@@H]([C@@H](C)O)C(=O)N1)[C@@H](C)O)C(=O)N1CCC[C@H]1C(=O)N1CCC[C@H]1C(=O)N[C@@H](CO)C(=O)N[C@H](C(=O)N[C@@H](CC(N)=O)C(=O)N[C@H](C(=O)NCC(=O)N1CCC[C@H]1C(=O)N[C@@H](CC(N)=O)C(=O)N[C@H](C(=O)N[C@@H](Cc1ccc(O)cc1)C(N)=O)[C@@H](C)O)C(C)C)[C@@H](C)O
notes: Synthetic analogue; also called compound 55

The binders below were run against T1, human calcitonin receptor (assay: SPA competition with 125I-calcitonin on membranes of BHK cells with human calcitonin receptor (Assay VII)).
How it was run: (§1)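 BHK hCTR membranes 35 ng/μL + SPA beads 0.05 mg/well; buffer 50 mM Hepes pH 7.4, 1 mM CaCl2, 5 mM MgCl₂, 0.1% OA, 0.02% Tween20. 120 min, 25° C., shaking. Scintillation count; IC50 by one-site binding competition.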
An IC50 of 29.2 nM was found for B1 in this work.
An IC50 of 3 nM was found for B2 in this work.
An IC50 of 7.87 nM was found for B3 in this work.
An IC50 of 35 nM was found for B4 in this work.

The binders below were run against T1, human calcitonin receptor (assay: ratio IC50 hCTR / IC50 hAmylin-R (reference: human amylin receptor), SPA competition assays).
How it was run: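 Competition binding by SPA uses membrane preparations (35 ng/μL final) in pH 7.4 Hepes buffer with 1 mM CaCl2 and 5 mM MgCl₂. Incubation lasts 120 min at 25° C, and IC₅₀ comes from one-site fitting.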
B1 was tested, and the “Ratio hCT/hAmylin binding” value was 68.6.
With B2 the “Ratio hCT/hAmylin binding” value was 26.5.
B3 was tested, and the “Ratio hCT/hAmylin binding” value was 36.2.
In the case of B4, the “Ratio hCT/hAmylin binding” value is reported as 100.

These binders were tested against T2, human amylin receptor (amylin 3(a) …) (assay: SPA competition with 125I-rat amylin on membranes of BHK cells with human calcitonin receptor and RAMP-3 (Assay V)).
How it was run: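 One-site competition analysis of SPA counts yielded IC₅₀ as a measure of affinity. Membranes were at 35 ng/μL final; incubation was 120 min at 25° C, pH 7.4.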
An IC50 of 0.426 nM was found for B1 in this work.
An IC50 of 0.114 nM was found for B2 in this work.
An IC50 of 0.217 nM was found for B3 in this work.
An IC50 of 0.348 nM was found for B4 in this work.

What follows are binders tested against T3, human calcitonin receptor (assay: SPA radioligand competition (125I-calcitonin), membranes of BHK cells with human calcitonin receptor).
How it was run: as §1
An IC50 of 5.38 nM was found for B5 in this work.
An IC50 of 2.17 nM was found for B6 in this work.
